Measurements reported in US12497460B2, “Anti-MSR1 antibodies and methods of use thereof” (REGENERON PHARMACEUTICALS, INC., priority 2018, dated 2025).

Legend:
[1] = molecular target: T1, His9-hMSR1 (human MSR1 extracellular domain) (Homo sapiens, UniProt P21757); experiment: Biacore T200 surface plasmon resonance binding kinetics of anti-MSR1 antibody-drug conjugates and parental antibodies; conditions: 25° C.; for kd: * = no dissociation observed, kd manually fixed at 1.00E−05
T1 construct: human MSR1 extracellular domain expressed with a N-terminal nonahistidine tag; His9 (nonahistidine) (N); purchased R&D Systems 2708-MS
T1 sequence (P21757 77-451 limits assumed): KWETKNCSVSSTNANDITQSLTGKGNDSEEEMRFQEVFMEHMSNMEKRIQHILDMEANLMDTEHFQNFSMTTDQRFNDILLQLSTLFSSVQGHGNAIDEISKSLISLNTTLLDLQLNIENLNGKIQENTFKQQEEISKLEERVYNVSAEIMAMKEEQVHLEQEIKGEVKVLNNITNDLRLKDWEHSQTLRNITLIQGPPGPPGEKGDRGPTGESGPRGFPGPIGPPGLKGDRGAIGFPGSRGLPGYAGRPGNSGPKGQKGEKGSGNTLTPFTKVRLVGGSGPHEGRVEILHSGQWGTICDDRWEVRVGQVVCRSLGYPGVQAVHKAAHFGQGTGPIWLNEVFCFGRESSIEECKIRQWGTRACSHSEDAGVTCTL
Protocol: The MSR1 antibodies disclosed herein were conjugated to various liver X receptor (LXR) payloads or various steroid payloads. This example describes how equilibrium dissociation constant (KD) values for human MSR1 reagents binding to human anti-MSR1 antibody-drug conjugates and their corresponding unconjugated parental antibodies were determined using a real-time surface plasmon resonance-based Biacore T200 biosensor.
All binding studies were performed in 10 mM HEPES, 300 mM NaCl, 3 mM EDTA, and 0.05% v/v Surfactant Tween-20, pH 7.4 (HBS-ET) running buffer at 25° C. The Biacore CM4 sensor chip surface was first derivatized by amine coupling with the goat anti-human Fcγ specific polyclonal antibody (Jackson ImmunoResearch Laboratories, Cat #BR-1008-39) to capture anti-MSR1 monoclonal antibodies. Binding studies were performed on human MSR1 extracellular domain expressed with a N-terminal nonahistidine tag (His9-hMSR1; R&D Systems, Cat #2708-MS).
The association rate (ka) and dissociation rate (kd) were determined by fitting the real-time binding sensorgrams to a 1:1 binding model with mass transport limitation using Scrubber 2.0c curve-fitting software. Binding dissociation equilibrium constant (KD) and dissociative half-life (t½) were calculated from the kinetic rates as: […]
Binding kinetics parameters for His9-hMSR1 binding to different anti-MSR1 antibody-LXR ADCs and their unconjugated parental antibodies at 25° C. are shown in Table 19. “LP1” represents a linker-payload for which the payload structure is provided in Example 11.
The binding studies were repeated with anti-MSR1 antibody H1H21234-N297Q and steroid linker payloads (LPs). “LP3” represents a linker-payload for which the structure is provided in Example 23, and “LP13” represents a linker-payload for which the structure is provided in Example 24.

[2] = molecular target: T2, MSR1 on differentiated THP-1 cells (Homo sapiens, UniProt P21757); experiment: Binding and internalization of cell-surface expressed MSR1 in differentiated THP-1 cells; type: cell-based; conditions: 10 μg/mL antibody; for Total Binding at 37° C. / Total Internalized RFU: 37° C.
T2 construct: endogenous in cells; host or cells: THP-1 cells differentiated with PMA
T2 sequence (P21757 1-451): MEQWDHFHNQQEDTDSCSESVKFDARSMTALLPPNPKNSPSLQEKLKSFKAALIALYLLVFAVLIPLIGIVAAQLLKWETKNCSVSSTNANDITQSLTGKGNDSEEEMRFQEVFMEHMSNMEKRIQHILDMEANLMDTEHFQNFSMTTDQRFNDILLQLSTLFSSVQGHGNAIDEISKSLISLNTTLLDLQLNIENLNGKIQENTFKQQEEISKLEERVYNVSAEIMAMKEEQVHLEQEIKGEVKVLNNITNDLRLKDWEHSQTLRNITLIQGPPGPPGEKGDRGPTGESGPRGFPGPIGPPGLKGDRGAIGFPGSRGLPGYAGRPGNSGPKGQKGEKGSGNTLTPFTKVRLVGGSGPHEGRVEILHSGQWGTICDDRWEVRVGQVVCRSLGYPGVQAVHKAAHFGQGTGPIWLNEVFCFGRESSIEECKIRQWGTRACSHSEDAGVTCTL
Protocol: Exemplary anti-MSR1 antibodies were assessed for their ability to bind and internalize MSR1 on MSR1-expressing cells.
The THP-1 cells were allowed to differentiate for 4 days at 37° C. in 5% CO2. […] The remaining two plates were incubated at 37° C. for 1 hour followed by fixation and staining for 20 minutes using a solution of 4% PFA+5 μM DRAQ5 diluted in PBS (internalization plates). After fixation, all plates were washed once with PBS. […] The remaining plates were incubated with PBS only. Confocal images were acquired on the Opera Phenix (Perkin Elmer) at 40× magnification. […] The total binding at 4° C. (RFU values of 4° C. unquenched wells), total binding at 37° C. (RFU values of 37° C. unquenched wells), the total internalized RFU, and % Internalization were determined for each antibody as shown in Table 14.
For all calculations, background fluorescence from unstained wells was subtracted from every well. Total internalized RFU was calculated as follows: Total RFU of 37° C. unquenched samples−Surface RFU at 37° C. Surface RFU is defined as unquenched RFU at 37° C.−quenched RFU at 37° C.)/QE. QE (quenching efficiency) is defined as: 1−(Total RFU of 4° C. quenched sample/Total RFU of 4° C. unquenched sample). The % Internalization was determined from the following formula: (Total internalized RFU at 37° C./Total RFU at 37° C.)*100.

[3] = test system: HEK293.mfMSR1 cells (monkey MSR1); experiment: Electrochemiluminescence antibody binding assay on MSR1-expressing cells; type: cell-based, Macaca fascicularis
[4] = Table 19, antibody-LXR ADCs and unconjugated antibodies

Molecule	ka ([1]; Table 20, antibody-steroid ADCs and unconjugated antibody)	kd ([1]; Table 20)	Total Binding at 4° C. [2]	Total Binding at 37° C. [2]	Total Internalized RFU [2]	ka [1, 4]	kd ([1]; Table 19)	% Internalization [2]	Ratio of 11 nM Antibody Binding Signal (RLU) to isotype control, HEK293.mfMSR1 [3]
H1H21234N-N297Q-LP13 (conjugate) VH: QVQLQESGPGLVKPSETLSLTCTVTGGSISRNYWSWIRQPPGKGLEWIGYIYYSGSIDYNPSLKSRVTISVDTSKNQFSLKLSSMTAADTAVYYCARDRWNWKYGMDVWGQGTTVIVSS VL: EIVLTQSPGTLSLSPGERATLSCRASQTVRNNYLAWYHQKPGQAPRLLIYGASSRATGIPDRFSGSGSGTDFTLTISRLEPEDFTVYYCHQYGNSPWTFGQGTKMEIKR	400000 M⁻¹ s⁻¹	1e-05 s⁻¹	–	–	–	–	–	–	–
H1H27734P-N297Q: one of "Twelve anti-MSR1 antibodies"; "made with an N297Q single point mutation in human Fcγ portion" (antibody, V domains shown) VH: EVQLVESRGGLVQPGGSLRLSCAASGFTFSSYAMSWVRQAPGKGLEWVSAISGSGGSTFYADSVKGRFTISRDNSKNTVYLQMNSLRAEDTAVYYCAKALVLRFLEWLGDYWGQGTLVTVSS VL: DIQMTQSPSTLSASVGDRVTITCRASQSISSWLAWFQQKPGKAPKLLIYKASSLESGVPSRFSGSGSGTEFTLTISSLQPDDFATYYCQQYKSYWTFGQGTKVEIKR	–	–	482859	1151348	737425 RFU	77200 M⁻¹ s⁻¹	0.000596 s⁻¹	–	–
H1H27739P-N297Q: anti-MSR1 antibody "made with an N297Q single point mutation in human Fcγ portion" (antibody, V domains shown) VH: EVQLVESGGGLVQPGGSLRLSCTASGFTFSSYAMSWVRQAPGKGLEWVSAISGTGSSTYFTDSVKGRFAISRDNSKNTLYLQMNSLRAEDTAVYYCAKDGEWLSTVTLFDYWGQGTLVTVSS VL: EIVMTQSPATLSVSPGERATLSCRASQSVSSNLAWYQQKPGQAPRLLIYGASTRATGIPARFSGSGSGTDFTLTISSLQSEDFALYYCQQYFIWPPHPTFGPGTKVDIKR	–	–	3702857	5608380	4016378 RFU	119000 M⁻¹ s⁻¹	0.000555 s⁻¹	71.6%	–
H1H21231N: "anti-MSR1 antibodies ... (21227N, 21231N, 21234N) were produced with the original human Fcγ portion"; "H1H" = human IgG1 Fc (antibody, V domains shown, human IgG1 Fc, "anti-MSR1 antibodies ; (21227N, 21231N, 21234N) were produced with the original human Fcγ portion"; "H1H" = human IgG1 Fc) VH: EVQLVESGGGLVQPGGSLRLSCAASGFTFSDHYMDWVRQAPGKGLEWVGRTRNKANSHTTEYTASVTGRFTISRDDSRNSLYLQMNSLKTEDTAVYYCVRAGIIGTLFDYWGQGTLVTVSS VL: DIQMTQFPSSLSASVGDRVTITCRASQSISSFLNWFQQKPGKAPKFLIYAASSLQSGVPSRFSGSGSGTDFTLTISSLQPEDFATYYCQQSYSSPPITFGQGTRLEIKR	–	–	–	–	–	–	–	–	75
H1H27729P-N297Q: anti-MSR1 antibody "made with an N297Q single point mutation in human Fcγ portion" (antibody, V domains shown) VH: QVQLVESGGGLVKPGGSLRLSCAASGFIFSDYYMSWIRQAPGKGLEWVSYISSSGTTIYGDSVKGRFTMSRDNAKNSLYLQMNSLRAEDTAVYYCARNYALFDYWGQGTLVTVSS VL: DIQMTQSPSSLSASVGDRVTITCQASQDISKYLNWYQQKPGKAPKLLIYYTSNLETGVPSRFSGSGSGTDFTFTISSLQPEDIATYYCHQSDYLPFTFGPGTKVDIKR	–	–	1930685	6607625	3763127 RFU	105000 M⁻¹ s⁻¹	0.000906 s⁻¹	57.0%	–
H1H27731P-N297Q: one of "Twelve anti-MSR1 antibodies"; "made with an N297Q single point mutation in human Fcγ portion" (antibody, V domains shown) VH: QLQLQESGPGLVKPSETLSLTCTVSGGSISRISYYWGWIRQPPGKGLEWIGSIYDSGSTYYNPSLKSRVTISIDTSKNQFSLKLSSVTAADTAVYYCVRYSSSSAFAFDYWGQGTLVTVSS VL: DIQMTQSPSSVSASVGDRVTITCRASQGISSWLAWYQQKPGKAPKLLIYAASSLQSGVPSRFSGSGSGTDFTLTISSLQPEDFATYYCQQANSFPFTFGPGTKVDIKR	–	–	1215319	1802404	977543 RFU	117000 M⁻¹ s⁻¹	1e-05 s⁻¹	54.2%	–
H1H27747P-N297Q (antibody, V domains shown) VH: QVQLVESGGAVVQPGRSLRLSCAASGFTFSYYGMHWVRQAPGKGLEWVAVISYDGSKKYYADSVKGRFTISRDNSKNTLYLQMNSLRAEDTAVYYCAKDLTVDFYYGMDVWGQGTTVTVSS VL: DIQMTQSPSSVSASVGDRVTITCRASQGISSWLAWYQQKPGKAPKLLIYATSSLQSGAPSRFSGSGSGTDFTLTISSLQPEDFATYFCQQANSFPYTFGQGTKLEIKR	–	–	2518361	5917858	3444330 RFU	117000 M⁻¹ s⁻¹	0.000262 s⁻¹	58.2%	–
H1H27754P-N297Q: one of "Twelve anti-MSR1 antibodies"; "made with an N297Q single point mutation in human Fcγ portion" (antibody, V domains shown) VH: EVQLVESGGGLVQPGGSLRLSCAASGFTFRTYAMTWVRQAPGKGLDWVSAITGDGGNTYYADSVKGRFTISRDNSKNTLYLQMNSLRAEDTAIYYCAKDQRFSFALYYFDYWGQGTLVTVSS VL: DIQMTQSPSSVSASVGDRVTITCRASQGISSWLAWYQQKPGNAPKLLIYAAFSLQSGVPSRFSGSGSGTDFTLTISSLQPEDFATYYCQQANNFPWTFGQGTKVEIKR	–	–	3077308	7161570	6446236 RFU	200000 M⁻¹ s⁻¹	1.00E−05* s^−1	90.0%	–
